Experimental data published in patent US20240268361A1.

Experiments:
[1] = molecular target: humanized TFR1 protein (engineered mouse TFR1 after humanization) (chimeric mouse/human) (UniProt P02786); assay: flow cytometry, B cells of TFR1 gene humanized heterozygous mouse (carry both mouse and humanized TFR1) stained with APC anti-human CD71
[2] = molecular target: mouse TFR1 (NP_035768.1) (mouse) (UniProt Q62351); assay: flow cytometry, C57BL/6 wild-type mouse B cells stained with APC anti-human CD71
Chain of UniProt Q62351 (Q62351 whole entry): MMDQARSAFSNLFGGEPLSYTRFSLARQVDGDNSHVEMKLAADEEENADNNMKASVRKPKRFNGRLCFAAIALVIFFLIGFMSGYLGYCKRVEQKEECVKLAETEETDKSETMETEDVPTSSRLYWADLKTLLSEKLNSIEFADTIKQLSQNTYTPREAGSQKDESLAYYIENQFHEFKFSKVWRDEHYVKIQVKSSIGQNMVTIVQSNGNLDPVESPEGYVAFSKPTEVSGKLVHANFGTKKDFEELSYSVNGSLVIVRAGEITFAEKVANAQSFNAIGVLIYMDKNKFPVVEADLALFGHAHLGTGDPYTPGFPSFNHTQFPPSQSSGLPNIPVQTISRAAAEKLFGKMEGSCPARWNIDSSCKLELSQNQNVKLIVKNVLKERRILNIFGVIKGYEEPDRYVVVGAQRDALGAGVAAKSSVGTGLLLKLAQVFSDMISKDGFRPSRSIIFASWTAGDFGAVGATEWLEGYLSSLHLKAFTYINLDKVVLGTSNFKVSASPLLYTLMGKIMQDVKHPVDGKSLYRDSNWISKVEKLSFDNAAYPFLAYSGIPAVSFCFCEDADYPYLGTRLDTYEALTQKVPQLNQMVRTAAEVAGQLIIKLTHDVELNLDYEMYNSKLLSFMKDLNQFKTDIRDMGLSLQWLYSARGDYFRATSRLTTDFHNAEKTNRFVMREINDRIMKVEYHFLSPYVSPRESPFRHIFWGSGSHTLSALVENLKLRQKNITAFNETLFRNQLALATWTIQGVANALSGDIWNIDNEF

[3] = molecular target: humanized TFR1 protein (engineered mouse TFR1 after humanization) (chimeric mouse/human) (UniProt P02786); assay: flow cytometry, bone marrow erythroid cells of TFR1 gene humanized homozygous mouse stained with APC anti-human CD71
[4] = molecular target: mouse TFR1 (NP_035768.1) (mouse) (UniProt Q62351); assay: flow cytometry, C57BL/6 wild-type bone marrow erythroid cells stained with APC anti-human CD71
[5] = molecular target: mouse TFR1 (NP_035768.1) (mouse) (UniProt Q62351); assay: flow cytometry, B cells of TFR1 gene humanized heterozygous mouse (carry both mouse and humanized TFR1) stained with PE anti-mouse CD71
[6] = molecular target: mouse TFR1 (NP_035768.1) (mouse) (UniProt Q62351); assay: flow cytometry, C57BL/6 wild-type mouse B cells stained with PE anti-mouse CD71
[7] = molecular target: mouse TFR1 (NP_035768.1) (mouse) (UniProt Q62351); assay: flow cytometry, C57BL/6 wild-type bone marrow erythroid cells stained with PE anti-mouse CD71
[8] = molecular target: humanized TFR1 protein (engineered mouse TFR1 after humanization) (chimeric mouse/human) (UniProt P02786); assay: flow cytometry, bone marrow erythroid cells of TFR1 gene humanized homozygous mouse stained with PE anti-mouse CD71

Chain of UniProt P02786 (P02786 other isoform, or with tags, fused parts or gaps mutant): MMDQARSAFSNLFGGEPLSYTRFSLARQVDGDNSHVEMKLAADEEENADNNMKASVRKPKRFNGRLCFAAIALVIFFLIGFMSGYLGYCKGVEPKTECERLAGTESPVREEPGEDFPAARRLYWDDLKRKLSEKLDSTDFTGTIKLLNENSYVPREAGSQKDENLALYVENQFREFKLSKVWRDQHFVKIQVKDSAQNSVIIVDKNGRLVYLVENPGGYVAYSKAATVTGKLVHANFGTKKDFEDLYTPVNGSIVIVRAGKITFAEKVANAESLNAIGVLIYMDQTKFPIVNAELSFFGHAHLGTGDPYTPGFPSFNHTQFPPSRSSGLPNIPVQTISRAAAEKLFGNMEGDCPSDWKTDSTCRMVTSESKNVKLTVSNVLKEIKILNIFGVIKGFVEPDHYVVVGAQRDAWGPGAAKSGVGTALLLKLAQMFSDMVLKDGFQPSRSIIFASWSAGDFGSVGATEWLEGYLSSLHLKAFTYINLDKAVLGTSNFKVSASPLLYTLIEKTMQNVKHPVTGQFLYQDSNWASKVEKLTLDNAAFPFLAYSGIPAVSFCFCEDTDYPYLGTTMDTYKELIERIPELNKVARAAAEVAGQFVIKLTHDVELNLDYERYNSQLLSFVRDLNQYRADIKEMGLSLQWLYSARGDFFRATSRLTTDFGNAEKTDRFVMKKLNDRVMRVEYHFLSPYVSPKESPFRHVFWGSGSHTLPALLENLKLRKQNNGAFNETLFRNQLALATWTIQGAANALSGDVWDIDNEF

Substance	percent of B cells positive [1] [%]	percent of B cells positive [2] [%]	percent of erythroid cells positive [3] [%]	percent of erythroid cells positive [4] [%]	percent of B cells positive [5] [%]	percent of B cells positive [6] [%]	percent of erythroid cells positive [7] [%]	percent of erythroid cells positive [8] [%]
APC anti-human CD71 Antibody (BioLegend, Catalog number: 334107)	11.3	0.2	10.1	0.087	–	–	–	–
PE anti-mouse CD71 Antibody (BioLegend, Catalog number: 113807)	–	–	–	–	32.9	50.6	14.2	0.04
